Series [1] has as its target T1, Solute carrier family 22 member 1 (Rattus norvegicus, UniProt Q63089).
T1 sequence (Q63089 whole entry): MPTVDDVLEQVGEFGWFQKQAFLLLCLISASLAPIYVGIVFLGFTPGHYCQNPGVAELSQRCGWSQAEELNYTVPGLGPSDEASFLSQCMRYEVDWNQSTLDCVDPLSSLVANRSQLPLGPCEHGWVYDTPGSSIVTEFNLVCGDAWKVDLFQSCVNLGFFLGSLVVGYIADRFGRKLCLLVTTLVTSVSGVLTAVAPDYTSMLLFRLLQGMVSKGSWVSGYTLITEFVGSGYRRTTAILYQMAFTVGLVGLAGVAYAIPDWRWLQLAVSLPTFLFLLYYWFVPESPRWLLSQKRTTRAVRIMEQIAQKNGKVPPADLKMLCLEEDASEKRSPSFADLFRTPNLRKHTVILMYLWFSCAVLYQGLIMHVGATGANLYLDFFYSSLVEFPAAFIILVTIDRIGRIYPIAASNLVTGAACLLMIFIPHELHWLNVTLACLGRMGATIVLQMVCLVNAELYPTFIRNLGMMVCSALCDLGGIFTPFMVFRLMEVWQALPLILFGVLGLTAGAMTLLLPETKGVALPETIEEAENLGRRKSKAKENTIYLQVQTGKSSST

Series [2] addresses T1, Solute carrier family 22 member 1. Nature of the series: TP_TRANSPORTER: inhibition of MPP+ uptake (MPP+: 0.1 uM) in OCT1-expressing HEK293 cells. The class given is functional, cell-based.
Substrate in series [3]: C[n+]1ccc(-c2ccccc2)cc1
Nature of the series: TP_TRANSPORTER: uptake in OCT1-expressing HEK293 cells. The class given is functional, cell-based.

Substrate in series [4]: CNC(=O)c1cccnc1
The series is described as follows: (§1) TP_TRANSPORTER: uptake in Xenopus laevis oocytes. The class given is functional, cell-based, Oocyte.

Substrate in series [5]: C[n+]1ccc(-c2ccccc2)cc1
The series is described as §1. The class given is functional, cell-based, Oocyte.

Substrate in series [6]: CC[N+](CC)(CC)CC
Nature of the series: cells, lysate or membranes named.

Substrate in series [7]: C[N+](C)(C)CCO
The series is described as follows: cells, lysate or membranes named.

In turn, `CCCC[N+](CCCC)(CCCC)CCCC` [TETRABUTHYLAMMONIUM] displayed an IC50 in series [1] of 3 µM.

As to `CCCCC[N+](CCCCC)(CCCCC)CCCCC` [TETRAPENTYLAMMONIUM], the half-maximal inhibitory concentration (IC50) in series [2] is 0.18 µM.

B1: Solute carrier family 22 member 1 (Rattus norvegicus) (protein)
chain: MPTVDDVLEQVGEFGWFQKQAFLLLCLISASLAPIYVGIVFLGFTPGHYCQNPGVAELSQRCGWSQAEELNYTVPGLGPSDEASFLSQCMRYEVDWNQSTLDCVDPLSSLVANRSQLPLGPCEHGWVYDTPGSSIVTEFNLVCGDAWKVDLFQSCVNLGFFLGSLVVGYIADRFGRKLCLLVTTLVTSVSGVLTAVAPDYTSMLLFRLLQGMVSKGSWVSGYTLITEFVGSGYRRTTAILYQMAFTVGLVGLAGVAYAIPDWRWLQLAVSLPTFLFLLYYWFVPESPRWLLSQKRTTRAVRIMEQIAQKNGKVPPADLKMLCLEEDASEKRSPSFADLFRTPNLRKHTVILMYLWFSCAVLYQGLIMHVGATGANLYLDFFYSSLVEFPAAFIILVTIDRIGRIYPIAASNLVTGAACLLMIFIPHELHWLNVTLACLGRMGATIVLQMVCLVNAELYPTFIRNLGMMVCSALCDLGGIFTPFMVFRLMEVWQALPLILFGVLGLTAGAMTLLLPETKGVALPETIEEAENLGRRKSKAKENTIYLQVQTGKSSST
On to B1, for which the Km in series [3] was 9.4 µM; in series [4], 126 µM; in series [5] it was 2.7 µM; in series [6], 129 µM; in series [7] it was 370 µM.

As a reminder, the IC50 is the concentration needed to halve the response being measured. Low values mean greater potency, high ones weaker potency. The Km is the concentration of substrate that gives half-maximal velocity.

These data come from ChEMBL document CHEMBL2074046, “Selectivity of the polyspecific cation transporter rOCT1 is changed by mutation of aspartate 475 to glutamate” (Mol Pharmacol, 1999).
